Substitutions are numbered along the chain they refer to.
T1: human CD86-murine Ig fusion protein (human)
T1 construct: Bought (Ancell #509-820); also called hCD86-mIg
T1 chain: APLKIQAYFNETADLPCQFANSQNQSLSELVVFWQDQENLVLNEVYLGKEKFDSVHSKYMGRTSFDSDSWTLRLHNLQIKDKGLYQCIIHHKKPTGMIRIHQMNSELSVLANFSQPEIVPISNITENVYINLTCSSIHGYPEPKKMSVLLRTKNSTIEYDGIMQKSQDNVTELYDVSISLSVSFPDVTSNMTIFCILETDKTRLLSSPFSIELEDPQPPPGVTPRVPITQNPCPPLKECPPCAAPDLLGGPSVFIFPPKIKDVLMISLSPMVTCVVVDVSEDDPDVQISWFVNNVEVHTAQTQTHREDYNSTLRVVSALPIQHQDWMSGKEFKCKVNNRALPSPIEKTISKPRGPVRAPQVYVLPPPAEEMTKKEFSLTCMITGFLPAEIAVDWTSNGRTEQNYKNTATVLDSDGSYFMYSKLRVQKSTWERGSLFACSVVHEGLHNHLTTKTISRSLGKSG

T2: full-length human CD86 on HEK293 cells (human, UniProt P42081 24-329)
T2 sequence: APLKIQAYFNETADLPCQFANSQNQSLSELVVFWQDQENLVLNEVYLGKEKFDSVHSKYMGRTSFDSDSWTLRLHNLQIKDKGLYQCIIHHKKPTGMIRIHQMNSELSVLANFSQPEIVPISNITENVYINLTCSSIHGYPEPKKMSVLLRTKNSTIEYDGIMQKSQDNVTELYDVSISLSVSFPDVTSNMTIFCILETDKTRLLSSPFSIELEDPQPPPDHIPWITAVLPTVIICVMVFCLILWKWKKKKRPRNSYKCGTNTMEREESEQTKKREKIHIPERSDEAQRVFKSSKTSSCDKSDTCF

T3: human CD80-murine Ig fusion protein (human)
T3 construct: Bought (Ancell #510-820); also called hCD80-mIg; human CD80-murine IgG
T3 chain: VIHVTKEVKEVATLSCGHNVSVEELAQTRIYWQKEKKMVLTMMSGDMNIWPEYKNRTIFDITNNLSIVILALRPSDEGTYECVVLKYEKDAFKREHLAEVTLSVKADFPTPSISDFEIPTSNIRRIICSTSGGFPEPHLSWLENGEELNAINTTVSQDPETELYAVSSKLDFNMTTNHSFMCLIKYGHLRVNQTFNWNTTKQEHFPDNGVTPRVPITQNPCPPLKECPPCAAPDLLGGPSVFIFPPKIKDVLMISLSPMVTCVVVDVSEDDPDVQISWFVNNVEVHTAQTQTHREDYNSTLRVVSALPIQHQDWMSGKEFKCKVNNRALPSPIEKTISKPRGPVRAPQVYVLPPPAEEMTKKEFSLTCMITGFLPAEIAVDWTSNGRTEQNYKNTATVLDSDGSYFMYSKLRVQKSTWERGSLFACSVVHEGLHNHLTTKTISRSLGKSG

B1: D2-IgG2 (Fc fusion)
chain: MHVAQPAVVLASSRGIASFVCEYESPHKANEIRVTVLRQANSQVTEVCAMTYMKGDELTFLDDPFCTGTFSGNQVNLTIQGLRAADTGLYICKVELMYPPPYYLGMGNGTQIYVIDPEPCPDSDERKCCVECPPCPAPPVAGPSVFLFPPKPKDTLMISRTPEVTCVVVDVSHEDPEVQFNWYVDGVEVHNAKTKPREEQFNSTFRVVSVLTVVHQDWLNGKEYKCKVSNKGLPAPIEKTISKTKGQPREPQVYTLPPSREEMTKNQVSLTCLVKGFYPSDIAVEWESNGQPENNYKTTPPMLDSDGSFFLYSKLTVDKSRWQQGNVFSCSVMHEALHNHYTQKSLSLSPG
B2: D27-IgG2 (Fc fusion)
chain: B1 chain with H27G, I32V, Q39E, N41G, K54V, G55E, F65S, M106L
B3: D3-71-IgG2 (Fc fusion)
chain: B1 chain with E24A, H27G, N41D, F65S, A85M, L104E, M106I
B4: D3-72-IgG2 (Fc fusion)
chain: B1 chain with H27G, N41D, D56N, F65S, A85M, L104E, M106I
B5: D3-56-IgG2 (Fc fusion)
chain: B1 chain with E24A, H27G, I32V, N41D, G55E, D56N, F65S, A85M, M106I
B6: D3-39-IgG2 (Fc fusion)
chain: B1 chain with H27G, I32V, N41D, D56N, F65I, A85M, M106I
B7: D3-6-IgG2 (Fc fusion)
chain: B1 chain with H27G, N41G, K54M, F65S, M106F
notes: also called D3-06-IgG2
B8: D3-52-IgG2 (Fc fusion)
chain: B1 chain with E24A, H27G, N41D, D56N, F65I, A85M, M106I
B9: D3-70-IgG2 (Fc fusion)
chain: B1 chain with H27G, I32V, N41D, D56N, F65S, A85M, L104E, M106I
B10: D3-2-IgG2 (Fc fusion)
chain: B1 chain with H27G, N30T, N41G, F65S, M106F
notes: also called D3-02-IgG2; D3-02
B11: D3-54-IgG2 (Fc fusion)
chain: B1 chain with E24A, H27G, I32V, N41D, G55E, D56N, F65I, A85M, M106I
B12: D31-IgG2 (Fc fusion)
chain: MHVAQPAVVLASSRGIASFVCEYEAPHNADEIRVTVLRQAGSQVTEVCAMTYMVEDELTFLDKSICTGTFSGNQVNLTIQGLRAMDTGLYICKVELMYPPPYYLGIGNGTQIYVIDPEPCPDSDERKCCVECPPCPAPPVAGPSVFLFPPKPKDTLMISRTPEVTCVVVDVSHEDPEVQFNWYVDGVEVHNAKTKPREEQFNSTFRVVSVLTVVHQDWLNGKEYKCKVSNKGLPAPIEKTISKTKGQPREPQVYTLPPSREEMTKNQVSLTCLVKGFYPSDIAVEWESNGQPENNYKTTPPMLDSDGSFFLYSKLTVDKSRWQQGNVFSCSVMHEALHNHYTQKSLSLSPG
B13: D3-34-IgG2 (Fc fusion)
chain: B1 chain with E24A, H27G, I32V, N41D, D56N, F65S, A85M, M106I
B14: D3-62-IgG2 (Fc fusion)
chain: B1 chain with E24A, H27G, N41D, G55E, F65S, A85M, M106I
B15: D3-15-IgG2 (Fc fusion)
chain: B1 chain with H27G, N41D, F65S, A85M, M106F
B16: D3-65-IgG2 (Fc fusion)
chain: B1 chain with E24A, H27G, I32V, N41D, D56N, F65S, A85M, L104E, M106I
B17: D26-IgG2 (Fc fusion)
chain: B1 chain with S25A, I32V, Q39E, N41G, K54V, G55E, F65S, M106L
B18: D3-69-IgG2 (Fc fusion)
chain: B1 chain with H27G, N41D, F65S, A85M, L104E, M106I
B19: D3-3-IgG2 (Fc fusion)
chain: B1 chain with H27G, I32V, N41G, F65S, M106F
notes: also called D3-03-IgG2
B20: D3-50-IgG2 (Fc fusion)
chain: B1 chain with E24A, H27G, I32V, N41D, F65I, A85M, M106I
B21: D28-IgG2 (Fc fusion)
chain: B1 chain with S25A, I32V, N41G, K54M, G55E, F65S, M106L
B22: D3-73-IgG2 (Fc fusion)
chain: B1 chain with H27G, I32V, N41D, D56N, F65I, A85M, L104E, M106I
B23: D29-IgG2 (Fc fusion)
chain: B12 chain with N28K, Q39K, G41D, V54M, K63D, S64P, I65S, I106L

Target: T1, human CD86-murine Ig fusion protein
Experiment: SPR Biacore, hCD86-mIg captured
Method: (§1) All Biacore™ analyses were performed on a Biacore™ 2000 system (GE Healthcare) at room temperature (RT, 25° C.). HBS-EP buffer (10 mM HEPES (pH 7.4), 150 mM NaCl, 3 mM EDTA, 0.005% surfactant P20) was used as the flow buffer for all experiments.
(§2) Rabbit anti-mouse IgG antibody (GE Healthcare, #BR-1005-14) was immobilized on CM5 sensor chips (GE Healthcare, #BR-1000-14) according to the manufacturer's protocol. Antibody was diluted to 30 μg/ml in immobilization buffer (10 mM sodium acetate, pH 5.0 (BR-1003-51)). At a flow rate of 5 μl/minute, sensor chip CM5 was activated with a 35 μl injection of a mixture of 1-Ethyl-3-[3-dimethylaminopropyl]carbodiimide hydrochloride (EDC) and N-hydroxysuccinimide (NHS) (made by mixing equal volumes of 11.5 mg/ml EDC and 75 mg/ml NHS) (GE Healthcare, #BR-1000-50), followed by a 35 μl injection of undiluted antibody. Un-reacted sites were quenched with 35 μl of 1M ethanolamine-HCL, pH 8.5 (GE Healthcare, #BR-1000-50). […] CTLA-4 ligands human CD80-murine Ig (hCD80-mIg) (Ancell, #510-820) or human CD86-murine Ig (hCD86-mIg) (Ancell, #509-820) were bound to antibody-coated sensor chips by injection of 10 μl or 16 μl, respectively, ligand solution (2 μg/ml protein in HBS-EP buffer [10 mM HEPES pH 7.4, 150 mM NaCl, 3 mM EDTA, 0.005% (v/v) surfactant P-20, GE Healthcare, #BR-1001-88]) at a flow rate of 10 μl/min.

| Kd | Binding Avidity (Relative to Orencia) | Binder |
| --- | --- | --- |
| 0.131 to 0.262 nM |  | B1 |
| < 0.131 nM | > 40 fold | B2 |
| < 0.131 nM | > 40 fold | B3 |
| < 0.131 nM | > 40 fold | B4 |
| < 0.131 nM | > 40 fold | B5 |
| 0.262 to 0.523 nM |  | B6 |
| 0.131 to 0.262 nM |  | B7 |
| 0.262 to 0.523 nM |  | B8 |
| < 0.131 nM | > 40 fold | B9 |
| 0.131 to 0.262 nM |  | B10 |
| < 0.131 nM | > 40 fold | B11 |
| 0.131 to 0.262 nM |  | B12 |
| 0.131 to 0.262 nM |  | B13 |
| < 0.131 nM | > 40 fold | B14 |
| < 0.131 nM | > 40 fold | B15 |
| < 0.131 nM | > 40 fold | B16 |
| < 0.131 nM | > 40 fold | B17 |
| < 0.131 nM | > 40 fold | B18 |
| 0.131 to 0.262 nM |  | B19 |
| 0.131 to 0.262 nM |  | B20 |
| < 0.131 nM | > 40 fold | B21 |
| < 0.131 nM | > 40 fold | B22 |
| < 0.131 nM | > 40 fold | B23 |

What follows are binders tested against T2, full-length human CD86 on HEK293 cells (assay: cell-based or functional assay).

| Mean IC50 (nM), CD4+ T cell proliferation | Binder |
| --- | --- |
| 0.03 nM | B1 |
| 0.04 nM | B3 |
| 0.03 nM | B4 |
| 0.04 nM | B5 |
| 0.05 nM | B6 |
| 0.05 nM | B7 |
| 0.07 nM | B8 |
| 0.05 nM | B9 |
| 0.03 nM | B10 |
| 0.04 nM | B11 |
| 0.05 nM | B13 |
| 0.04 nM | B14 |
| 0.02 nM | B15 |
| 0.06 nM | B16 |
| 0.03 nM | B18 |
| 0.04 nM | B19 |
| 0.06 nM | B20 |
| 0.06 nM | B22 |

Target: T3, human CD80-murine Ig fusion protein
Experiment: SPR Biacore, hCD80-mIg captured
Method: as §1, §2

| Binding Avidity (Relative to Orencia) | Kd | Binder |
| --- | --- | --- |
| > 2 fold | < 0.439 nM | B1 |
|  | 0.439 to 1.75 nM | B2 |
| > 2 fold | < 0.439 nM | B3 |
| > 2 fold | < 0.439 nM | B4 |
|  | 0.439 to 1.75 nM | B5 |
|  | 0.439 to 1.75 nM | B6 |
|  | 0.439 to 1.75 nM | B7 |
|  | 0.439 to 1.75 nM | B8 |
| > 2 fold | < 0.439 nM | B9 |
|  | 0.439 to 1.75 nM | B10 |
|  | 0.439 to 1.75 nM | B11 |
|  | 0.439 to 1.75 nM | B12 |
|  | 0.439 to 1.75 nM | B13 |
| > 2 fold | < 0.439 nM | B14 |
|  | 0.439 to 1.75 nM | B15 |
| > 2 fold | < 0.439 nM | B16 |
|  | 0.439 to 1.75 nM | B17 |
| > 2 fold | < 0.439 nM | B18 |
|  | 0.439 to 1.75 nM | B19 |
|  | 0.439 to 1.75 nM | B20 |
|  | 0.439 to 1.75 nM | B21 |
| > 2 fold | < 0.439 nM | B22 |
|  | 0.439 to 1.75 nM | B23 |

Source: patent US20110177071A1 (PERSEID THERAPEUTICS, published 2011)
